# Measured values as given in IntAct's records for PubMed 9343432.
# B1: Polycomb protein Scm (Drosophila melanogaster (Fruit fly)), Q9VHA0 (parent)
# chain: MSGGRDSSTSSGSNSAAPGASTNATSSASASASSTSTSASPGSTTSPASTQRQRGRPAKRATCTWCGEGKLPLQYVLPTQTGKKEFCSETCIAEFRKAYSKGACTQCDNVIRDGAPNKEFCSIMCMNKHQKKNCSTRHSGGSASGKGLAESERKLLASGAPAPTGPFQYESFHVFDWDAYLEETGSEAAPAKCFKQAQNPPNNDFKIGMKLEALDPRNVTSTCIATVVGVLGSRLRLRLDGSDSQNDFWRLVDSTEIHAIGHCEKNGGMLQPPLGFRMNASSWPGYLCKILNNAMVAPEEIFQPEPPEPEENLFKVGQKLEAVDKKNPQLICCATVDAIKDDQIHVTFDGWRGAFDYWCNYRSRDIFPAGWCARSCHPMQPPGHKSRMDSSSSKQRCPRPRYTVVAESEAMVPASPATAHFHPNCKGGPFINNSKLPCMVTGPTYQTLAKLCLQEVLAASTDTQQLSKLLFALEGDVHIVTAAGKNFTVKIPSPMRMKDDESLAQFIETLCTTCRACANLISLVHETEECKKCANSRKRQLTQSATPPSSPVLADKRNRQSNSATTSPSEKIIKQELAVKSPVESKSKTSTNNGKEPASQQNSNHSLNNNNNSASKSSNKVVIKSEPNGANAQTSSTTQALRKVRFQHHANTNTNSSATNGNQDTSQTTHVSTSHCSSSSTSSSTSLAGGSANTSTIGKYLAPLVAEVHPEQANVKPSNSYYKSPTTLSSSASLPTSVSTPFTGCQSASSTALAAGGVTAAKAATAPAGAAATAGASPSYTAITSPVSTPTSALANSHLRSQPIDWTIEEVIQYIESNDNSLAVHGDLFRKHEIDGKALLLLNSEMMMKYMGLKLGPALKICNLVNKVNGRRNNLAL
# B2: Polyhomeotic-proximal chromatin protein (Drosophila melanogaster (Fruit fly)), P39769 (parent)
# chain: MDRRALKFMQKRADTESDTTTPVSTTASQGISASAILAGGTLPLKDNSNIREKPLHHNYNHNNNNSSQHSHSHQQQQQQQVGGKQLERPLKCLETLAQKAGITFDEKYDVASPPHPGIAQQQATSGTGPATGSGSVTPTSHRHGTPPTGRRQTHTPSTPNRPSAPSTPNTNCNSIARHTSLTLEKAQNPGQQVAATTTVPLQISPEQLQQFYASNPYAIQVKQEFPTHTTSGSGTELKHATNIMEVQQQLQLQQQLSEANGGGAASAGAGGAASPANSQQSQQQQHSTAISTMSPMQLAAATGGVGGDWTQGRTVQLMQPSTSFLYPQMIVSGNLLHPGGLGQQPIQVITAGKPFQGNGPQMLTTTTQNAKQMIGGQAGFAGGNYATCIPTNHNQSPQTVLFSPMNVISPQQQQNLLQSMAAAAQQQQLTQQQQQFNQQQQQQLTQQQQQLTAALAKVGVDAQGKLAQKVVQKVTTTSSAVQAATGPGSTGSTQTQQVQQVQQQQQQTTQTTQQCVQVSQSTLPVGVGGQSVQTAQLLNAGQAQQMQIPWFLQNAAGLQPFGPNQIILRNQPDGTQGMFIQQQPATQTLQTQQNQIIQCNVTQTPTKARTQLDALAPKQQQQQQQVGTTNQTQQQQLAVATAQLQQQQQQLTAAALQRPGAPVMPHNGTQVRPASSVSTQTAQNQSLLKAKMRNKQQPVRPALATLKTEIGQVAGQNKVVGHLTTVQQQQQATNLQQVVNAAGNKMVVMSTTGTPITLQNGQTLHAATAAGVDKQQQQLQLFQKQQILQQQQMLQQQIAAIQMQQQQAAVQAQQQQQQQVSQQQQVNAQQQQAVAQQQQAVAQAQQQQREQQQQVAQAQAQHQQALANATQQILQVAPNQFITSHQQQQQQQLHNQLIQQQLQQQAQAQVQAQVQAQAQQQQQQREQQQNIIQQIVVQQSGATSQQTSQQQQHHQSGQLQLSSVPFSVSSSTTPAGIATSSALQAALSASGAIFQTAKPGTCSSSSPTSSVVTITNQSSTPLVTSSTVASIQQAQTQSAQVHQHQQLISATIAGGTQQQPQGPPSLTPTTNPILAMTSMMNATVGHLSTAPPVTVSVTSTAVTSSPGQLVLLSTASSGGGGSIPATPTKETPSKGPTATLVPIGSPKTPVSGKDTCTTPKSSTPATVSASVEASSSTGEALSNGDASDRSSTPSKGATTPTSKQSNAAVQPPSSTTPNSVSGKEEPKLATCGSLTSATSTSTTTTITNGIGVARTTASTAVSTASTTTTSSGTFITSCTSTTTTTTSSISNGSKDLPKAMIKPNVLTHVIDGFIIQEANEPFPVTRQRYADKDVSDEPPKKKATMQEDIKLSGIASAPGSDMVACEQCGKMEHKAKLKRKRYCSPGCSRQAKNGIGGVGSGETNGLGTGGIVGVDAMALVDRLDEAMAEEKMQTEATPKLSESFPILGASTEVPPMSLPVQAAISAPSPLAMPLGSPLSVALPTLAPLSVVTSGAAPKSSEVNGTDRPPISSWSVDDVSNFIRELPGCQDYVDDFIQQEIDGQALLLLKEKHLVNAMGMKLGPALKIVAKVESIKEVPPPGEAKDPGAQ
# Variants of: B1
# Settings: with php_drome ph-p, P39769
row,Variant,effect of a mutation on the interaction
1,G836S,decreasing interaction

# Variants of: B2
# Settings: with scm_drome Scm, Q9VHA0
row,Variant,effect of a mutation on the interaction
1,W1513A,decreasing interaction
2,G1562A,decreasing interaction
